Laboratory results taken from patent US20180094059A1 (UNIVERSITAT STUTTGART, published 2018).

Assays:
[1] = molecular target: T1, EGFR on EGFR-positive tumor cell lines (UniProt P00533 25-1210, limits assumed); assay: flow cytometry, HCT116 cells
T1 construct: whole, on cells; The cell line is named under assay or readout; also called EGFR+ cell lines

[2] = molecular target: T1, EGFR on EGFR-positive tumor cell lines; assay: flow cytometry, HCT116 cells; remark: listed apart in the source
[3] = molecular target: T1, EGFR on EGFR-positive tumor cell lines; assay: flow cytometry, Colo205 cells
[4] = molecular target: T1, EGFR on EGFR-positive tumor cell lines; assay: flow cytometry, Colo205 cells; remark: listed apart in the source
EGFR-Fc = molecular target: T2, EGFR-Fc (UniProt P00533 25-645); assay: ELISA, EGFR-Fc
T2 construct: also called purified EGFR-Fc; not shown: Fc part

B1: anti-EGFR IgG (antibody, V domains shown)
VH: EVQLVESGGGLVQPGGSLRLSCAASGFSLTNYGVHWVRQAPGKGLEWLGVIWSGGNTDYNTPFTSRFTISRDNSKNTLYLQMNSLRAEDTAVYYCARALTYYDYEFAYWGQGTTVTVSS
VL: DIQLTQSPSFLSASVGDRVTITCRASQSIGTNIHWYQQKPGKAPKLLIKYASESISGVPSRFSGSGSGTEFTLTISSLQPEDFATYYCQQNNNWPTTFGAGTKLEIKR
notes: EGFR-specific human IgG1 with mutated Fc domain (ADCC/CDC), kappa light chain, N-terminal FLAG tag on the heavy chain; derived from cetuximab by humanization; also called hu225 (anti-EGFR) IgG; anti-EGFR human IgG1 scaffold antibody
B1 was tested, and the EC50 [1] was 0.008 nM, the EC50 [2] was 0.07 nM and the EC50 [3] was 0.028 nM. For the same binder, the EC50 [4] was 0.06 nM and the EC50 (EGFR-Fc) was 0.156 nM.
